The target of assay [1] is T1, human IGF-II (human, UniProt P01344 25-91).
T1 construct: mature; It was biotinylated for the flow cytometry assays; also called hIGF-II; insulin-like growth factor II
Kind of assay: ELISA, hIGF-II coated on the plate. The procedure: The half-maximal binding (EC₅₀) was calculated by fitting the data to the Langmuir adsorption isotherm.
(§1) ELISA was performed as described previously (Chen et al., 2008, supra). Bound Fabs and eAds were detected by HRP-conjugated mouse anti-FLAG tag antibody. The antibody-Fc fusion proteins binding to IGF-II directly coated on 96-well plates were detected by HRP-conjugated goat anti-human IgG (Fc-specific) antibody. […] The half-maximal binding (EC₅₀) was calculated by fitting the data to the Langmuir adsorption isotherm.
For orientation: An ELISA detects its analyte on a solid surface through an enzyme-linked reagent.

Assay [2] deals with T1, human IGF-II. Kind of assay: SPR, Biacore X100, antibody amine-coupled to a CM5 chip, hIGF-II as analyte, monovalent binding model. (In general: SPR reads the build-up and loss of mass on a sensor chip optically.)
Experimental: ELISA was performed by coating IGF-II on 96-well plates. Bound antibodies were detected by HRP-conjugated goat anti-human IgG (Fc-specific) antibody. SPR analysis was performed on Biacore X100 by according to the manufacturer's instructions.
The binding kinetics of the antibodies was assessed by SPR analysis on Biacore X100 (GE Healthcare) according to the manufacturer's instructions. Briefly, antibodies were diluted in sodium acetate (pH 5.0) and immobilized directly onto a CM5 sensor chip with standard amine coupling method. The reference cell was injected with N-hydroxysuccinimide/1-ethyl-3-(3-dimethyaminopropy) carbodiimide and ethanolamine without injection of IGF-II. IGF-II was diluted with running buffer HBS-EP (100 mM HEPES, pH 7.4, 1.5 M NaCl, 30 mM EDTA, 0.5% surfactant 20). […] The kinetic constants were calculated from the sensorgrams fitted with the monovalent binding model of the BiacoreX100 Evaluation software 2.0.
In assay [3] the target is T1, human IGF-II. In words: phage library panned on hIGF-II, semELISA screening. How it is done:
The PCR products were gel-purified, digested with SfiI, and gel-purified again. The purified fragments were then cloned into pComb3X linearized by SfiI. A phage library was prepared by electroporation of Escherichia coli (E. coli) strain TG1 electroporation-competent cells (Stratagene, La Jolla, Calif.) with desalted and concentrated ligation, as described previously (Chen et al., 2008, J Mol Biol 382:779-89).

The target of assay [4] is T1, human IGF-II. Kind of assay: ELISA, eAd on hIGF-II. The procedure: as §1
For another assay, the target named is T2, mouse IGF-II (mouse, UniProt P09535 25-91).
T2 construct: also called mIGF-II
T2 sequence (P09535 25-91 limits assumed): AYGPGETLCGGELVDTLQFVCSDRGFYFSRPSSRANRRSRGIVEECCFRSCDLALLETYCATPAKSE
In words: ELISA-based competition assay.

Assay [5] concerns the target T1, human IGF-II. Kind of assay: ELISA, Fab on hIGF-II.
The target of assay [6] is T1, human IGF-II. In words: ELISA on hIGF-II. The procedure:
as §1

T1 sequence (P01344 25-91): as the sequence (P09535 25-91 limits assumed) above, with G3R, G5S, S22G, S32A, A35V, N36S counted along it

B1: m660 (bispecific antibody, human IgG1, kappa)
heavy: not shown
light: QVQLVQSGGGLVQPGGSLRLSCAASSFDFDYYEMSWVRQAPGQRLEWVAYISKSGGTKMYADSVKGRFTISRDNSKNTLYLQMNTLRAEDTAMYYCAKDRATCRGGRCYSFYYGMDVWGQGTLVTVSSGGGGSGGGGSGGGGSRTVAAPSVFIFPPSDEQLKSGTASVVCLLNNFYPREAKVQWKVDNALQSGNSQESVTEQDSKDSTYSLSSTLTLSKADYEKHKVYACEVTHQGLSSPVTKSFNRGEC
notes: Produced in 293 free style cells; also called bispecific antibody m660
Usually Kd stands for a measure of binding affinity in units of concentration. For B1, the “fold lower EC50 than IgG1 m610.7” value in the assay with human IGF-II [1] stood at 3 fold. Also, the Kd in the assay with human IGF-II [2] came to 0.136 nM.

B2: eAd m630.9 (VHH)
VHH: QVQLVQSGGGLVQPGGSLRLSCAASSFDFDYYEMSWVRQAPGQRLEWVAYISKSGGTKMYADSVKGRFTISRDNSKNTLYLQMNTLRAEDTAMYYCAKDRATCSGGRCYSFYYGMDVWGQGTLVTVSS
notes: Mutant of m630 selected from the random mutagenesis library panned on hIGF-II; not shown: C-terminal hexahistidine tag, and a FLAG tag used for detection
With B2, the binding result with human IGF-II [3] is reported as “binds”.

B3: eAd m630.4 (VHH)
VHH: QVQLVQSGGGLVQPGGSLRLSCAASSFDFGYYEMSWVRQAPGQRLEWVAYISKSGGTKMYADSVKGRFTISRDNSKNTLYLQMNTLRAEDTAMYYCAKDRATCSGGRCYSFYYGMDVWGQGTLVTVSS
notes: as for B2
For the molecule B3, in the assay with human IGF-II [3], the binding result was “binds”.

B4: eAd m630 (VHH)
VHH: QVQLVQSGGGLVQPGGSLRLSCAASSFDFDYYEMSWVRQAPGQRLEWVAYISKSGGTKMYADSVKGRFTISRDNSKNTLYLQMNTLRAEDTAMYYCAKDRATCSGGSCYSFYYGMDVWGQGTLVTVSS
notes: Human engineered antibody domain (a single VH domain) expressed in E. coli HB2151; not shown: C-terminal hexahistidine tag, and a FLAG tag used for detection
What is called EC50 is the midpoint of the concentration-response curve. A high value points to weaker potency. B4 had an EC50 in the assay with human IGF-II [4] of 50 nM. Further, in the assay with mouse IGF-II, the binding result is reported as “binds”.

B5: eAd m630.3 (VHH)
VHH: QVQLVQSGGGLVQPGGSLRLSCAASSFDFDYYEMSWVRQAPGQRLEWVAYISKSGGTKMYADSVKGRFTISRDNSKNTLYLQMNTLRAEDTAMYYCAKDRATCRGGRCYSFYYGMDVWGQGTLVTVSS
notes: not shown: C-terminal hexahistidine tag, and a FLAG tag used for detection
As for B5, in the assay with human IGF-II [4], the response was half-maximal at 2 nM (EC50) and the “fold lower EC50 than m630” value turned out to be 25 fold.

B6: eAd m630.1 (VHH)
VHH: QVQLVQSGGGLVQPGGSLRLSCAASSFDFDYYEMSWVRQAPGQRLEWVAYISKSGGTKMYADSVKGRFTISRDNSRNTLYLQMNTLRAEDTAMYYCAKDRATCRGGSCYSFYHGMDVWGQGTLVTVSS
notes: as for B2
As to B6, the binding result with human IGF-II [3] is listed as “binds”.

B7: Fab m610.27 (Fab, V domains shown)
VH: QVQLVQSGAEVKKPGASVKVSCKASGYTFTSYYMHWVRQAPGQGLEWMGIINPSGGSTSYAQKFQGRVTMTRDTSTSTVYMELSRLRSDDTAVYYCARDVQWLAYGMDVWGQGTTVTVSS
VL: DIQMTQSPSSLSASVGDRVTITCRASQSISSYLNWYQQKPGRAPDLLINAASSLQSGVPSRFSGSGSGTDFTLTISSLQPEDFATYFCQQSYSLPFTFGGGTKVEIKG
notes: Human Fab expressed in E. coli HB2151; also called m610.27 in Fab format
On to B7, for which the EC50 with human IGF-II [5] turned out to be 5 nM.

B8: m610 (Fab, V domains shown)
VH: QVQLVQSGAEVKKPGASVKVSCKASGYTFTSYYMHWVRQAPGQGLEWMGIINPSGGSTSYAQKFQGRVTMTRDTSTSTVYMELSRLRSDDTAVYYCARDVQWLAYGMDVWGQGTTVTVSS
VL: not shown
notes: also called Fab m610
Molecule B8 registered an EC50 in the assay with human IGF-II [6] of 20 nM. In addition, the binding result with mouse IGF-II is “binds”.

For the origin of these results see patent US20140271646A1 (UNITED STATES OF AMERICA AS REPRESENTED BY THE SECRETARY …, published 2014).
